Positions count from the first letter of the chain named. Where two headings read alike, the source gives them in different places.
B1: Antibody 68 (antibody, V domains shown)
VH: QSVEESGGRLVTPGTPLTLTCTVSGFSLSTYSMSWVRQAPGKGLEWIGTIAISGTTYYASWAKGRFTISKSSTTVDLKISSPTTEDTATYFCARYVSDLIGTNLWGPGTLVTVSS
VL: DVVMTQTPASVSEPVGGTVTIKCQASQSIGSNLAWHQQKPGQPPKLLIYAASNLASGVSSRFKGSRSGTEYTLTISAVQCDDAATYYCQYTYYGSSVVIGTFGGGTEVVVK
notes: rabbit IgG in B-cell supernatant
B2: Antibody 47 (antibody, V domains shown)
VH: QSVEESGGRLVTPGTPLTLTCTVSGFSLSSYAMNWVRQAPGKGLEWIGIIDSSGITYYATWAKGRFTISKTSTTVDLKMTSLTTEDTATYFCARGVTLWGQGTLVTVSS
VL: AQVLTQTASPVSAAVGSTVTINCQASQSVYNNNRLSWFQQKPGQPPKLLISGASTLASGVSSRFSGSGSGTQFTLTISDVQCDDAATYYCLGSYDCSSADCGAFGGGTEVVVK
notes: as for B1
B3: Antibody A05 (antibody, V domains shown)
VH: QSLEESGGRLVTPGGSLTLTCTVSGIDLSSYAVAWVRQAPGKGLQYIGFFDKSGNVYYASWAKGRFTISRTSSTTVDLKMTSLTTEDTATYFCGRGSGGSDLWGQGTLVTVSS
VL: DVVMTQTPASVEAAVGGTVTIKCQASQSISGYLAWFQQKPGQPPKLLIYGASTLASGVPSRFKGSGSGTEFTLTISDLECADAATYYCQSYYTTSATSYGNAFGGGTEVVVK
notes: as for B1
B4: Antibody G04 (antibody, V domains shown)
VH: QSLEESGGDLVKPGASLTLTCKASGFTISSSYYMCWVRQAPGKGLEWVACSYDGDGSTYYANWAKGRFTTSKTSSTTVTLQMTSLTAADTATYFCARGSYVSRSYYDKWDLWGQGTLVTVSS
VL: EVVMTQTPASVSEPVGGTVTIKCQASQYISSYLSWYQQKPGQPPKLLIYAASNLASGVPSRFKGSGSGTEFTLTISGVQCDDAATYYCQNNYYISGYGTAFGGGTEVVVK
notes: as for B1
B5: Antibody 56 (antibody, V domains shown)
VH: QSLEESGGRLVTPGTPLTLTCTASGFSLSSYDLSWVRQAPGKGLEWIAYIWSGDKTYYANWAKGRFTISKTSSTTVDLKMTSLTTEDTATYFCATVNIYSYVYSLWGPGTLVTVSS
VL: AYDMTQTPASVEVAVGGTVTIKCQASQSISTALAWYQQKSGQPPKLLIYLASTLASGVPSRFKGSGSGTEYTLTISGVECADAATYYCQQHYSSNNVDNAFGGGTEVVVK
notes: as for B1
B6: Antibody 62 (antibody, V domains shown)
VH: QSVEESGGRLVTPGTPLTLTCTVSGFSLSTNDIGWVRQAPGKGLEWIGYIWSGVKTYYVGWAKGRFTISKTSSTTVDLKMTSLTTEDTATYFCARVNSFSYVYSLWGPGTLVTVSS
VL: AYDMTQTPGSVEVAVGGTVTIKCQASEDIHSSLAWYQQKPGQPPKLLIYLASTLESGVPSRFKGSGSGTEYTLTISGVECADAATYYCQQHHSTSGVDNAFGGGTEVVVK
notes: as for B1
B7: Antibody 64 (antibody, V domains shown)
VH: QEQLKESGGGLVTPGTPLTLTCTASGFTISSYDMGWVRQAPGKGLEWIGYIWSGGSTYYANWAKGRFTISKTSTTVDLKMTSLTTEDTATYFCARVEFYSYVYVLWGPGTLVTVSS
VL: AFELTQTPSSVEAAVGGTVTIKCQASQSISGCLAWYQQKPGQPPKLLIYLASTLASGVSSRFRGSGSGTEYTLTISGVECDDAATYYCQQHYSSNNVDNAFGGGTEVVVK
notes: as for B1
B8: Antibody 69 (antibody, V domains shown)
VH: QSVEESGGRLVTPGTLLTLTCTVSGFSLTTYAVSWVRQAPGKGLEYMGYISATGSTYYASWAKGRFTISRTSTTVDLKITSPTIEDTATYFCARIDAATSYSAFDPWGPGTLVTVSS
VL: AQVLTQTPSSVSAAVGGTVTINCQSSESVYKNNYLAWYQQKPGQPPRLLIYLASTLASGVPSRFSGSGSGTQFTLTISGVQCDDAATYYCEATYVGVDWYWAFGGGTEVVVK
notes: as for B1
B9: Antibody 75 (antibody, V domains shown)
VH: QSVEESGGRLVTPGTPLTLTCTVSGFSLSRNAMSWVRQAPGKGLEWIGIINIYGTTWYASWAKGRFTISKTSSTTVTLKITSPTTEDTATYFCARDYGGDSATRLNLWGQGTLVTVSS
VL: DVVMTQTPASVEAAVGGTVTIKCQASQSIGGYLSWYQQKPGQPPKLLIYDASNLEIGVPSRFKGSGSGTEYTLTISDLECADAVTYYCQCTYGYGISSSYGNAFGGGTEVVVK
notes: as for B1
B10: Antibody 71 (antibody, V domains shown)
VH: B9 VH with Y58H, S60G
VL: B9 VL
notes: as for B1
B11: Antibody 11 (antibody, V domains shown)
VH: QSVEESGGRLVTPGTPLTLTCTVSGFSLRSYAMSWVRQAPGKGLEWVGIISTSGDTYYASWAKGRFTISKTSTTVDLKITSPTTEDTATYFCARYSYDDYGDYVRVGMDLWGPGTLVTVSS
VL: AAVLTQTPSPVSAAVGGTVSISCQSSKSVYYNNWLSWFQQKPGQRPKLLIYGASTLASGVPSRFKGSGSETQFTLTISDVQCDDAATYYCAGGYTSSSDTVSFGGGTEVVVK
notes: as for B1
B12: Antibody 22 (antibody, V domains shown)
VH: QSVEESGGRLVTPGTPLTLTCTVSGFSLSNYGMSWVRQAPGKGLEWIGIITSRSTYYASWAKGRFTISKTSSTTVDLKMTSLTTEDTATYFCGVNNLWGQGTLVTVSS
VL: DPVLTQTPSSVSAAVGGTVTISCQSSQTINNNDLSWFQQKPGQPPKRLIYEASTLTSGVPSRFKGSGSGTQFTLTISDVQCDDAATYYCLGGYYSYGWYFGFGGGTEVVVK
notes: as for B1
B13: Antibody B02 (antibody, V domains shown)
VH: QSVEESGGRLVTPGTPLTLTCTVSGFSLSSYDMIWVRQAPGKGLEYIGIINTGGSAHYARWANGRFTISKTSTKVDLKITSPTIEDTATYFCARRDFGVSSKLWGQGTLVTVSS
VL: DIVMTQTPASVSAAVGGTVTINCQASEDIGNWLAWYQQKPGQRPKLLIYAASDLASGVPSRFKGSGSGTDFTLTISGLECADAATYYCQGGFFGSGFVYAFGGGTEVVVK
notes: as for B1
B14: Antibody D02 (antibody, V domains shown)
VH: QSLEESGGRLVTPGTPLTLTCTASRFSLSSYGVNWVRQAPGKGLQWIGYSHTDGSAYYTNWAKGRFTISRTSTTVDLKITSPTTADTATYFCWRGGLWGQGTLVTVSS
VL: AQVLTQTPSSVSAAVGGTVTINCQASQSVYKNNYLSWYQQKPGQPPKRLIYTASTLASGVPSRFKGSGSGTEFTLTISDVQCDDAATYYCVGGYDCSSADCNAFGGGTEVVVK
notes: as for B1
B15: Antibody 23 (antibody, V domains shown)
VH: QSLEESGGRLVKPGTPLTLTCTASGFSLSSYYMIWVRQAPGKGLEYIGIISSSGSTYYASWAKGRFTISKTSSTTVDLKMTSLTTEDTATYFCGVNNLWGQGTLVTVSS
VL: B12 VL with T28S, Q39K
notes: as for B1

Tests used:
[1] = biological target: T1, recombinant Fc chimeric conjugate of human HER2 (human, UniProt P04626 23-652); experiment: ELISA, coated antigen; supernatant IgG 1500.0 ng/ml
T1 construct: extracellular domain; Coated on the ELISA plate
Method: (§1) Microtiter plates were coated with a) c-Met, IGF-1R, EGFR, HER2, and/or HER3 protein or b) EGFR, HER2, and/or HER3 (recombinant Fc chimeric conjugates of human c-Met, IGF-1R, EGFR, HER2, HER3 or IL12 Rβ1). After a blocking process, specific antibodies from B-cell supernatants bind to the targets and are then detected by a POD-labeled anti-rabbit IgG antibody. The IL12R binding was used as a counter-screen.
(§2) 12.5 μL 0.5 μg/mL protein in PBS was transferred to a microtiter plate incubated and washed 3× with Wash Buffer. 90 μL Block Buffer was added to each well, incubated and washed. 12.5 μL Standard Antibody (Anti-EGF-Receptor; HER2 Rabbit anti-Human Monoclonal (extracellular domain) (SP3) Antibody; HER3 (N-terminal) antibody; start concentration 2 μg/ml; IL-12Rbeta1 antibody start concentration 500 ng/ml) in 1:2 dilutions or sample diluted in ELISA buffer was added, incubated and washed. 12.5 μl 1:5000 POD-Antibody (Anti-rabbit IgG, peroxidase-linked species-specific Fab2 fragment (from donkey) (ECL); assay dilution: 1:5000) in Elisa Buffer was added, incubated and washed. 15 μl TMB was added and 15 μl HCl was added after sufficient development. Absorbance (Optical Density O.D.) was read at 450 nm/620 nm.

[2] = biological target: T2, recombinant Fc chimeric conjugate of human HER3 (human, UniProt P21860 20-643); experiment: ELISA, coated antigen
T2 construct: extracellular domain; Coated on the ELISA plate
T2 sequence (P21860 20-643, change not shown): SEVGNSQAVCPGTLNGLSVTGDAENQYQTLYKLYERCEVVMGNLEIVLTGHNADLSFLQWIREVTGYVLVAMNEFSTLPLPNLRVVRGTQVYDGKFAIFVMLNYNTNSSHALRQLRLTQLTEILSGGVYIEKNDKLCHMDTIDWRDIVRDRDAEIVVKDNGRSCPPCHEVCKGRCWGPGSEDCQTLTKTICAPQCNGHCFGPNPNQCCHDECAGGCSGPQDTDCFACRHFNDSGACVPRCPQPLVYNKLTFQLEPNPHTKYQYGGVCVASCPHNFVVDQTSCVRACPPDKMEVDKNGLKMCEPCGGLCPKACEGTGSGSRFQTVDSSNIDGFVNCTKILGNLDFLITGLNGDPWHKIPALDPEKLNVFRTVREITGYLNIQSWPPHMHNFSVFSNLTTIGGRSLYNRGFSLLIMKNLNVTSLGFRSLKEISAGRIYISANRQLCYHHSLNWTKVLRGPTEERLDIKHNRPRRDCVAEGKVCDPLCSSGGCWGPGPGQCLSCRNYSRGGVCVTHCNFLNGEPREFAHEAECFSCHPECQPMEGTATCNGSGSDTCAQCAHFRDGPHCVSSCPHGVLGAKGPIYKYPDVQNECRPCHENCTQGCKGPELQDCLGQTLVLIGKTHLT
Method: as §1, §2

[3] = biological target: T3, recombinant Fc chimeric conjugate of human EGFR (human, UniProt P00533 25-645); experiment: ELISA, coated antigen
T3 construct: extracellular domain; Coated on the ELISA plate; also called HER1; Her1
Method: as §1, §2

[4] = biological target: T3, recombinant Fc chimeric conjugate of …; experiment: ELISA, coated antigen; remark: listed apart in the source
Method: as §1, §2

[5] = biological target: T1, recombinant Fc chimeric conjugate of …; experiment: ELISA, coated antigen
Method: as §1, §2

[6] = biological target: T4, recombinant Fc chimeric conjugate of human IGF-1R (human, UniProt P08069 31-935); experiment: ELISA, coated antigen
T4 construct: extracellular domain; Coated on the ELISA plate
T4 sequence (P08069 31-935, change not shown): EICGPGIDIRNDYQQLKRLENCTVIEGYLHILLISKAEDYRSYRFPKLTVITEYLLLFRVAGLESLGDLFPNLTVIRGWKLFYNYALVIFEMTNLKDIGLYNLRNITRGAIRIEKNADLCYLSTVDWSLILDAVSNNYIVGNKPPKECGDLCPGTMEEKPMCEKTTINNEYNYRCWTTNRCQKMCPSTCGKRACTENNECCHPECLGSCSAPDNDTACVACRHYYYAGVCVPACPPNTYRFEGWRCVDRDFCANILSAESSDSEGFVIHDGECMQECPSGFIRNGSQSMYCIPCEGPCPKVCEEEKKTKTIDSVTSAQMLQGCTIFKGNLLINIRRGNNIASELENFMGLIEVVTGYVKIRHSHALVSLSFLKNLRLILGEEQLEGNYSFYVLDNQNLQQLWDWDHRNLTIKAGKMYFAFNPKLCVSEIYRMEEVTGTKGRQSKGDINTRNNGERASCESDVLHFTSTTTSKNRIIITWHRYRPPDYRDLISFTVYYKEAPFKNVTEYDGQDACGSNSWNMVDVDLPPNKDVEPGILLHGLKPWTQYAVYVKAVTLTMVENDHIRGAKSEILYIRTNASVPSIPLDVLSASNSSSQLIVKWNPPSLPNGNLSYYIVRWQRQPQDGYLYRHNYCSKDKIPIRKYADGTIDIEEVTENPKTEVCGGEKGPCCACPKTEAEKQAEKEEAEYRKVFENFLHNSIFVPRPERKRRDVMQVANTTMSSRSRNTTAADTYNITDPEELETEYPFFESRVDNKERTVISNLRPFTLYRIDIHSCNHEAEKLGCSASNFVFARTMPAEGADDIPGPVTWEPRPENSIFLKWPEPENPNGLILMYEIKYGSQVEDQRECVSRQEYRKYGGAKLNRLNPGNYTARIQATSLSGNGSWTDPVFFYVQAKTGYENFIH
Method: as §1, §2

Binder	binding result [5]	also measured
B1	–	Optical density (OD) [1]: 2.7 OD; binding result [2]: no binding (tested: OD 0.1 or lower)
B2	–	binding result [3]: no binding (tested: OD 0.1 or lower)
B3	–	binding result [4]: no binding (tested: OD 0.1 or lower)
B4	–	binding result [4]: no binding (tested: OD 0.1 or lower)
B5	no binding (tested: OD 0.1 or lower)	–
B6	no binding (tested: OD 0.1 or lower)	–
B7	no binding (tested: OD 0.1 or lower)	–
B8	no binding (tested: OD 0.1 or lower)	–
B9	no binding (tested: OD 0.1 or lower)	–
B10	no binding (tested: OD 0.1 or lower)	–
B11	no binding (tested: OD 0.1 or lower)	–
B12	no binding (tested: OD 0.1 or lower)	–
B13	–	binding result [4]: no binding (tested: OD 0.1 or lower)
B14	–	binding result [6]: no binding (tested: OD 0.1 or lower)
B15	no binding (tested: OD 0.1 or lower)	–
